Measured values reported in paper doi:10.1101/2025.11.17.688911.

Experiments:
[1] = target: surface-immobilized biotinylated microtubules (pig) (UniProt Q2XVP4); experiment: TIRF microscopy, fluorescence intensity of GFP-tagged MAP on microtubules; biotinylated MTs held on a streptavidin-coated coverslip; one concentration of WT or mutant MAP9 construct (100 nM in Fig. 1h-i and Extended Data Fig. 6b); BRB80, 100 mM salt
[2] = target: surface-immobilized biotinylated microtubules, Q2XVP4;Q767L7; experiment: fluorescence intensity of GFP-tagged MAP9-MTBD on surface-immobilized MTs (fluorescence microscopy); settings: 100 nM MAP9 construct (stated for panel h); parent: est. 0.72; read off a plot

| Substance | percent reduction of MT binding against WT MAP9-MTBD [1] | response [2] |
| --- | --- | --- |
| MAP9-MTBD R1R2 (from UniProt Q49MG5 302-647) (domain or fragment) | 80% | – |
| MAP9-MTBD (Human MAP9 (302–647)::GFP::strepII) (from UniProt Q49MG5) F473A; F516A | – | 0.17 a.u. |
| MAP9-MTBD (Human MAP9 (302–647)::GFP::strepII) (from UniProt Q49MG5) W432A; W476A; W519A; W563A; W606A | – | 0.04 a.u. |
